The values that follow come from patent publication US20210115146A1.

Experiment [1] has as its target mouse EGFR (cell surface) (mouse) (UniProt Q01279). The experiment can be described thus: FACS binding to mouse EGFR cells; the table head prints W562.CHOK1.cPro1.H6.
For experiment [2], the target named is Macaca fascicularis EGFR (cell surface) (Macaca fascicularis). The experiment can be described thus: FACS binding to W562.CHOK1.cPro1.H6 cells (monkey EGFR), upper panel and table. A general note: A flow cytometer gives signals particle by particle.
For experiment [3] the target is unchanged. The experiment in a line: FACS binding to W562-CHO-K1.cPro1.H6 cells (monkey EGFR), lower panel and table.
Experiment [4] addresses mouse EGFR (cell surface) (mouse) (UniProt Q01279). The experiment in a line: FACS binding to W562-CHO-K1.mPro1.F3 cells (mouse EGFR), lower panel and table; the curve is still rising at 100 nM.
Experiment [5] has the same target. The experiment can be described thus: FACS binding to W562-CHO-K1.mPro1.F3 cells (mouse EGFR), lower panel and table.

B1: W562-BMK3 (antibody, from another filing, human IgG1, V domains shown)
VH: QVQLQESGPGLVKPSETLSLTCTVSGLSLASNSVSWIRQPPGKGLEWMGVIWNHGGTDYNPSIKSRLSISRDTSKSQVFLKMNSLTAADTAMYFCVRKGGIYFDYWGQGVLVTVSS
VL: DTVLTQSPSLAVSPGERATISCRASESVSTLMHWYQQKPGQQPKLLIYLASHRESGVPARFSGSGSGTDFTLTIDPMEAEDTATYYCQQSRNDPWTFGQGTKLELKR
Take B1: the concentration for a half-maximal effect (EC50) (usually the concentration that produces a half-maximal response) worked out at 2.42 nM in experiment [1], 1.47 nM in experiment [2], 1.24 nM in experiment [3] and 6.41 nM in experiment [4]. Moreover, the Top MFI was found to be 31000 MFI in experiment [1] and 37500 MFI in experiment [2]. In addition, the TOP MFI in experiment [3] came to 16000 MFI; in experiment [5] it was 32800 MFI.
